Biological target: the molecule itself
Test: crystal structure; diFe-SulE crystals grown anoxically in 0.1 M bis-Tris pH 5.5, 24% (w/v) PEG 3350 at 293 K, treated with 100 mM H2O2; data at 100 K; space group P63; three data sets at 5%, 10% and 100% beamline flux

B1: Sulfolobus tokodaii sulerythrin reconstituted with ferrous iron (diFe-SulE) (natural protein, UniProt F9VPE5 1-144, looked up)
chain: MKDLKGTKTAENLKQGFIGESMANRRYLYFAKRADEEGYPEIAGLLRSIAEGETAHAFGHLDFIRQGGLTDPATDKPIGTLEQMIESAIAGETYEWTQMYPGFAKVAREEGFPEVAEWFETLARAEKSHAEKFQNVLKQLKGGT
notes: Sulerythrin (SulE), Sulfolobus tokodaii, UniProt F9VPE5, residues 1-145; synthetic gene in pET-28a with an N-terminal Strep-tag and a TEV protease site; Domain-swapped homodimer; each of its two binuclear metal sites holds two iron ions (four in all); Crystals were treated with 100 mM H2O2; not shown: Strep-tag, N-terminal, cleaved
Q: With B1 as the protein, how does the “stoichiometry N” value read?
A: 2
